In patent US20240400654A1 one finds OD450 nm and Ratio OD(Variant)/OD(WT) data, which are given here for 37 molecules.

The target in the test is HRgpA-6H (Porphyromonas gingivalis) (UniProt P28784). Description: ELISA, coated HRgpA-6H. For orientation: In an ELISA, binding on a coated surface is turned into a signal by an enzyme label.

Positions count from the first letter of the chain named. Names and notes keep the numbering of the source. Values joined by “and” are separate entries in the source; they are usually repeats but may differ in a detail not shown here. Equal entries are not always repeated.

Chain of UniProt P28784 (P28784 228-860 limits assumed): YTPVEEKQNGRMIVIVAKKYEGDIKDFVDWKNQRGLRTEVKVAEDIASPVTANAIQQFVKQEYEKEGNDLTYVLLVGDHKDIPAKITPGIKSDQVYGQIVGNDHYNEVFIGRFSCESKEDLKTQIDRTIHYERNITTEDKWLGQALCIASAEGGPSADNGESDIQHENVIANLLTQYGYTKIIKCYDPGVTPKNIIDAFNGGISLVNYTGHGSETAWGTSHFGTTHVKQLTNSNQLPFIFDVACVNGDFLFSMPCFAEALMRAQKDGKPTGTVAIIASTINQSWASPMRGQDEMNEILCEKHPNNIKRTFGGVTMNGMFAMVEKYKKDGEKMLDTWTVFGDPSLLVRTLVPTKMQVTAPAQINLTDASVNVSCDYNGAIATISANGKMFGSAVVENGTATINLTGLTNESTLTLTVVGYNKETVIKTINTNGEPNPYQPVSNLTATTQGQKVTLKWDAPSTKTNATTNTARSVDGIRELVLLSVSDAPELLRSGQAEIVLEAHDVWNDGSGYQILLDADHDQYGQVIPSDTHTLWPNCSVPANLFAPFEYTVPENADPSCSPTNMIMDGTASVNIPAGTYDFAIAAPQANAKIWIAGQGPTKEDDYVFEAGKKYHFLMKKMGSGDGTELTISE

B1: KB001 mouse Fab VL N54E (Fab, V domains shown)
VH: EVQLKQSGPGLVAPSQSLSITCTVSGFSLSIYSVHWVRQPPGKGLEWLGMIWGGGSSDYNSALKSRLSISKDNSKSQVFLKMNSLQTDDTAMYYCARNGNFYAMDYWGQGTSVTVSS
VL: QIVLTQSPAIMSASLGERVTMTCTASSSVSSSFLHWYQQKPGSSPQLWIYSTSELASGVPARFSGSGSGTSYSLTISSMEAEDAATYYCHQYHHSPYIYTFGGGTKLEIK
With B1, the OD450 nm is 0.744 and 0.74; the Ratio OD(Variant)/OD(WT) is 0.95 and 0.944.

B2: KB001 mouse Fab VH S30G (Fab, V domains shown)
VH: B1 VH with S30G
VL: B1 VL with E54N
Regarding B2, the OD450 nm is 0.533 and 0.515; the Ratio OD(Variant)/OD(WT) is 1.06 and 1.02.

B3: KB001 mouse Fab VL L55H (Fab, V domains shown)
VH: B1 VH
VL: B1 VL with E54N, L55H
With B3, the OD450 nm was 0.695 and 0.731; the Ratio OD(Variant)/OD(WT) is 0.887 and 0.933.

B4: KB001 mouse Fab VH K64R (Fab, V domains shown)
VH: B1 VH with K64R
VL: B1 VL with E54N
Take B4: the OD450 nm was determined as 0.87 and the Ratio OD(Variant)/OD(WT) came out at 1.05.

B5: KB001 mouse Fab VH S28P (Fab, V domains shown)
VH: B1 VH with S28P
VL: B1 VL with E54N
For B5, the OD450 nm is 0.545 and 0.452 and 0.514; the Ratio OD(Variant)/OD(WT) is 1.01 and 0.837 and 0.952.

B6: KB001 mouse Fab VH S30N (Fab, V domains shown)
VH: B1 VH with S30N
VL: B1 VL with E54N
For B6, the OD450 nm was 0.565 and 0.56; the Ratio OD(Variant)/OD(WT) is 1.12 and 1.11.

B7: KB001 mouse Fab VH S57V (Fab, V domains shown)
VH: B1 VH with S57V
VL: B1 VL with E54N
In the case of B7, the OD450 nm was 0.911 and 0.869; the Ratio OD(Variant)/OD(WT) is 1.04 and 0.988.

B8: KB001 mouse Fab VH S30A (Fab, V domains shown)
VH: B1 VH with S30A
VL: B1 VL with E54N
Turning to B8, the OD450 nm was 0.534 and 0.499 and 0.494; the Ratio OD(Variant)/OD(WT) was 1.06 and 0.989 and 0.979.

B9: KB001 mouse Fab VH K64A (Fab, V domains shown)
VH: B1 VH with K64A
VL: B1 VL with E54N
As to B9, the OD450 nm amounted to 0.89 and the Ratio OD(Variant)/OD(WT) amounted to 1.08.

B10: KB001 mouse Fab VL L55S (Fab, V domains shown)
VH: B1 VH
VL: B1 VL with E54N, L55S
Turning to B10, the OD450 nm is 0.672 and the Ratio OD(Variant)/OD(WT) was 0.858.

B11: KB001 mouse Fab VH S61Q (Fab, V domains shown)
VH: B1 VH with S61Q
VL: B1 VL with E54N
As for B11, the OD450 nm turned out to be 0.634 and the Ratio OD(Variant)/OD(WT) amounted to 1.28.

B12: KB001 mouse Fab VH S61N (Fab, V domains shown)
VH: B1 VH with S61N
VL: B1 VL with E54N
Take B12: the OD450 nm turned out to be 0.537 and the Ratio OD(Variant)/OD(WT) came to 1.09.

B13: KB001 mouse Fab VH S30Y (Fab, V domains shown)
VH: B1 VH with S30Y
VL: B1 VL with E54N
In the case of B13, the OD450 nm is 0.53 and 0.488; the Ratio OD(Variant)/OD(WT) is 1.05 and 0.967.

B14: KB001 mouse Fab VH S57A (Fab, V domains shown)
VH: B1 VH with S57A
VL: B1 VL with E54N
Regarding B14, the OD450 nm was 0.922 and the Ratio OD(Variant)/OD(WT) worked out at 1.05.

B15: KB001 mouse Fab VL L55K (Fab, V domains shown)
VH: B1 VH
VL: B1 VL with E54N, L55K
With B15, the OD450 nm turned out to be 0.769 and the Ratio OD(Variant)/OD(WT) came to 0.981.

B16: KB001 mouse Fab VL L55T (Fab, V domains shown)
VH: B1 VH
VL: B1 VL with E54N, L55T
For the molecule B16, the OD450 nm came to 0.727 and the Ratio OD(Variant)/OD(WT) stood at 0.928.

B17: KB001 mouse Fab VH S28E (Fab, V domains shown)
VH: B1 VH with S28E
VL: B1 VL with E54N
On to B17, for which the OD450 nm is 0.561 and 0.551 and 0.494; the Ratio OD(Variant)/OD(WT) is 1.04 and 1.02 and 0.915.

B18: KB001 mouse Fab VL L55V (Fab, V domains shown)
VH: B1 VH
VL: B1 VL with E54N, L55V
As to B18, the OD450 nm was determined as 0.706 and the Ratio OD(Variant)/OD(WT) was 0.901.

B19: KB001 mouse Fab VL N54F (Fab, V domains shown)
VH: B1 VH
VL: B1 VL with E54F
In the case of B19, the OD450 nm was determined as 0.765 and the Ratio OD(Variant)/OD(WT) was 0.976.

B20: KB001 mouse Fab VH V34I (Fab, V domains shown)
VH: B1 VH with V34I
VL: B1 VL with E54N
For the molecule B20, the OD450 nm was 0.891 and 0.868 and 0.866; the Ratio OD(Variant)/OD(WT) is 1.08 and 1.05 (2×).

B21: KB001 mouse Fab VH S61D (Fab, V domains shown)
VH: B1 VH with S61D
VL: B1 VL with E54N
Consider B21, for which the Ratio OD(Variant)/OD(WT) is 1.14 and 1.11 (2×) and 0.956.

B22: KB001 mouse Fab VH S56A (Fab, V domains shown)
VH: B1 VH with S56A
VL: B1 VL with E54N
In the case of B22, the OD450 nm is 0.891 and 0.86 and 0.82; the Ratio OD(Variant)/OD(WT) was 1.01 and 0.978 and 0.932.

B23: KB001 mouse Fab VH G99Y (Fab, V domains shown)
VH: B1 VH with G99Y
VL: B1 VL with E54N
B23: the OD450 nm is 0.835 and the Ratio OD(Variant)/OD(WT) was found to be 1.05.

B24: KB001 mouse Fab VH S65T (Fab, V domains shown)
VH: B1 VH with S65T
VL: B1 VL with E54N
In the case of B24, the OD450 nm is 0.883 and the Ratio OD(Variant)/OD(WT) was 1.07.

B25: KB001 mouse Fab VH Y59V (Fab, V domains shown)
VH: B1 VH with Y59V
VL: B1 VL with E54N
Regarding B25, the OD450 nm was 0.83 and 0.79; the Ratio OD(Variant)/OD(WT) is 1.05 and 0.999.

B26: KB001 mouse Fab VH S61T (Fab, V domains shown)
VH: B1 VH with S61T
VL: B1 VL with E54N
For the molecule B26, the OD450 nm was 0.543 and 0.447; the Ratio OD(Variant)/OD(WT) is 1.1 and 0.906.

B27: KB001 mouse Fab VH S57Q (Fab, V domains shown)
VH: B1 VH with S57Q
VL: B1 VL with E54N
With B27, the OD450 nm was 0.915 and 0.863 and 0.836; the Ratio OD(Variant)/OD(WT) was 1.04 and 0.981 and 0.951.

B28: KB001 mouse Fab VH I31M (Fab, V domains shown)
VH: B1 VH with I31M
VL: B1 VL with E54N
As for B28, the OD450 nm was found to be 0.522 and the Ratio OD(Variant)/OD(WT) amounted to 1.03.

B29: KB001 mouse Fab VL N54A (Fab, V domains shown)
VH: B1 VH
VL: B1 VL with E54A
For the molecule B29, the OD450 nm was 0.776 and the Ratio OD(Variant)/OD(WT) amounted to 0.99.

B30: KB001 mouse Fab VH I31T (Fab, V domains shown)
VH: B1 VH with I31T
VL: B1 VL with E54N
As for B30, the OD450 nm was 0.56 and 0.534; the Ratio OD(Variant)/OD(WT) was 1.11 and 1.06.

B31: KB001 mouse Fab VH I31V (Fab, V domains shown)
VH: B1 VH with I31V
VL: B1 VL with E54N
In the case of B31, the OD450 nm was 0.537 and 0.521; the Ratio OD(Variant)/OD(WT) was 1.06 and 1.03.

B32: KB001 mouse Fab VH S30E (Fab, V domains shown)
VH: B1 VH with S30E
VL: B1 VL with E54N
For the molecule B32, the OD450 nm stood at 0.567 and the Ratio OD(Variant)/OD(WT) is 1.12.

B33: KB001 mouse Fab VL L55Q (Fab, V domains shown)
VH: B1 VH
VL: B1 VL with E54N, L55Q
B33: the OD450 nm was 0.711 and 0.692 and 0.684; the Ratio OD(Variant)/OD(WT) was 0.907 and 0.883 and 0.873.

B34: KB001 mouse Fab VH S65D (Fab, V domains shown)
VH: B1 VH with S65D
VL: B1 VL with E54N
With B34, the OD450 nm is 0.866 and 0.897; the Ratio OD(Variant)/OD(WT) was 1.05 and 1.08.

B35: KB001 mouse Fab VH S65V (Fab, V domains shown)
VH: B1 VH with S65V
VL: B1 VL with E54N
Consider B35, for which the OD450 nm worked out at 0.867 and the Ratio OD(Variant)/OD(WT) stood at 1.05.

B36: KB001 mouse Fab VL N54D (Fab, V domains shown)
VH: B1 VH
VL: B1 VL with E54D
Consider B36, for which the OD450 nm came out at 0.725 and the Ratio OD(Variant)/OD(WT) was 0.925.

B37: KB001 mouse Fab VL N54L (Fab, V domains shown)
VH: B1 VH
VL: B1 VL with E54L
For B37, the OD450 nm was 0.774 and the Ratio OD(Variant)/OD(WT) was 0.988.
